Data published in the DeepSol protein solubility set.

Assay: soluble on expression in E. coli; label from the status in PepcDB or PDB records

Row | Sequence | soluble on expression in E. coli
1 | SVNYYKVLGVPRNASSSDIKRAFHQLALQVHPDKNPGDKEAAEEKFKQVAEAYHILSDAKKRKDYDRSRWNRNKGEIRGDGHDKGETIRVNDSRDETDWEEKICSRRPRHTFQKVTEDEDLFSGDCLFSGPITGSRRASSPFFTVTPIMDTGFSTFVSHESRSYSDDPETFVPYISQGMGKFRLVTTCSKTVNGKRVVTKRVVENIRGPKKIENERLFRHNPSRGWKLMENPCS | soluble
2 | MGSDKIHHHHHHMPDTRITEDFLGFGLGLRTDHFEYILQHQPDIDWFEVLSENYLVAGGKPRYYLEAIAEQYPVVMHGVSMSIGSSDPLDMDYLKALKKLSNDIQPKWISDHICWTSIHGVNSHDLLPLPYTEETVNHVAQRVRQVQDVLGRRILLENVSSYLSYQDSTMDEWDFLSQVAEAADCLVLLDINNIYVSARNHHFNPLDYLKKIDPRRVQQFHLAGHSDFGDYVIDTHDHDVPPSVWTLYQAALERFGAVSTMIERDANIPEFPALYNELLEAKHIAQLTLPDDPALARSQFGSRSLDDLSKFINTNNASSQKVRA | not soluble
3 | MKPLLTAMFGATLATASTLASAEVAVIMNAGASAAPSQAEVANIFLGKDTSLKGLDQKGWNPTKERFYSALTNKNESQLKSYWSGLVFTGKGQPLQSVDDDAAVIAKVGSEANAIGYIDTSAVNDKVKVLFTLP | not soluble
4 | GVLAPVVPGKALEFPQDFGAHNDFRIEWWYVTGWLETPTGKPLGFQITFFRTATEIDRDNPSHFAPDQLIIAHVALSDPAIGKLQHDQKIARAGFDLAYARTGNTDVKLDDWIFVRETDGRYRTRIEAEDFTLTFILTPSQPLMLQGENGFSRKGPGAPQASYYYSEPHLQVSGIINRQGEDIPVTGTAWLDREWSSEYLDPNAAGWDWISANLDDGSALMAFQIRGKDDSKIWAYAALRDASGHTRLFTPDQVSFHPIRTWRSARTQAVYPVATRVLTGETEWQITPLMDDQELDSRASAGAVYWEGAVTFTRDGQPAGRGYMELTGYVRPLSM | soluble
5 | MGHHHHHHSHMAFFRRSLMTENAVLQLRAERIARATRPFLARGNRVRRCQRCLLPEKLCLCSTITPAQAKSRFCLLMFDTEPMKPSNTGRLIADILPDTVAFQWSRTEPSQDLLELVQNPDYQPMVVFPASYADEQREVIFTPPAGKPPLFIMLDGTWPEARKMFRKSPYLDNLPVISVDLSRLSAYRLREAQAEGQYCTAEVAIALLDMAGDTGAAAGLGEHFTRFKTRYLAGKTQHLGSITAEQLESV | soluble
6 | MYSRADRLLRQFSLKLNTDSIVFDENRLCSFIIDNRYRILLTSTNSEYIMIYGFCGKPPDNNNLAFEFLNANLWFAENNGPHLCYDNNSQSLLLALNFSLNESSVEKLECEIEVVIRSMENLYHILQDKGITLDTDYTHHHHHH | soluble
7 | MTEIRVHQGDLPNLDNYRIDAVAVDTETLGLQPHRDRLCVVQLSSGDGTADVIQIAKGQKSAPNLVRLLSDRDITKIFHFGRFDLAILAHTFGVMPDVVFCTKIASKLTRTYTDRHGLKEICGELLNVNISKQQQSSDWAAETLSRAQIEYAASDVLYLHRLKDIFEERLKREERESVAKACFQFLPMRANLDLLGWSEIDIFAHS | not soluble
8 | MGSDKIHHHHHHMVNSSGLLAKLYNAFNPFEPLPAGDPKYVDCQDVRGDADIEQELGNRMRLADTNTCQLYSGHRGAGKSTELLRLKKYLENREFYVVYFAADEEDIDSEDAQYTDILLACTRRLLKDLKGIASPRPILDWLKGRWEDLKDLAQTPIEFESLGVEAQLTQFAKLTANLRAVPELRQKIRQKIDPYTVTLIQVLNEFLVDAKQHLPNGYKKLAVIVDNLDRMVLVKDAERTNYEEVFLDRSEQLQALDCHLIYTVPISMVYSTRATDLRDIYGDPQILPMIMVKTFEGNVYQPGLEKVKEVIKKRVRQIAPELSLETEIFDSPQTLDRLCLMSGGHVRNLLLLTQDAIGRSEDLPVSEKAVRRAITQARDTYRRAVENHQWCLLAEVSCSKRIINDDLYRSLMYNRCLLEYRYLDDDGEMQRWYDIHPLIQGIPEFKEAVAKLS | not soluble
9 | MSLQLSKAAEMCYEITNSYLHIDQKSQIIASTQEAIRLTRKYLLSEIFVRWSPLNGEISFSYNGGKDCQVLLLLYLSCLWEYFFIKAQNSQFDFEFQSFPMQRLPTVFIDQEETFPTLENFVLETSERYCLSLYESQRQSGASVNMADAFRDFIKIYPETEAIVIGIRHTDPFGEALKPIQRTDSNWPDFMRLQPLLHWDLTNIWSFLLYSNEPICGLYGKGFTSIGGINNSLPNPHLRKDSNNPALHFEWEIIHAFGKDAEGERSSAINTSPISVVDKERFSKYHDNYYPGWYLVDDTLERAGRIKNEGHHHHHH | soluble
10 | MGSDKIHHHHHHMKKATDKNPTTTSKPNTITPLFTTNYNVYINHTDAGGIVYHANHLVFFENCRRDWFTQLGLNGYFLESNDGQIQHFVVTQADLQYKHAILLDEVINVRIDNVEIKPASIVFYQSIYRQQSQDNTANNAKAVLLSSTKIVVACVQNQITPDSIDNNASNNTAPMRPVRVPQKLRDAIERAIAEHIVEIL | not soluble
11 | MNDAPPFDLDAYLARIGYTGPRNASLDTLKALHFAHPQAIPFENIDPFLGRPVRLDLAALQDKIVLGGRGGYCFEHNLLFMHALKALGFEVGGLAARVLWGQSEDAITARSHMLLRVELDGRTYIADVGFGGLTLTAPLLLEPGREQKTPHEPFRIVEADDHFRLQAAIGGDWRSLYRFDLQPQYEVDYSVTNYFLSTSPTSHFLSSVIAARAAPDRRYALRGNRLSIHHLGGRTEQTEIATAADLADTLQGLLGIIIPDRTAFEAKVRETKIVETNA | soluble
12 | MVLARREALDPRYQYDAALAAAKKGEAAIAVPAGVMIAGYWPIRSEIDPRPLLSAFRAKGARLCLPVVLDAETIAFREFLPDAELVPTGFGTMGPDEHAPLVDPAIMLMPLAGFDRLGHRLGYGAGHYDRALARFAERGLQPLLIGMAFDCQEVDYVPNEPHDIALHQILTESGLRSRAMDLEHHHHHH | not soluble
13 | MSLSGIYEIAILGRATWQLHSLNNEGTVGNVTEPRSVRIIDPNTKKAVTTDGISGEMLKHIHTEIMWTLDDKNNLCDACKVLNPEKFNFAIKSKKATPKDVEDALKQALNTCDICDVQGFLLERPTASRKSTVEFGWALGIPEVYRDIHTHARHALGEKGKREKTEESEEEVGGVSTQMVYHRPTRSGVYAIISVFQPWRIGLNEAKQDKYTYDANDNARERRYQLALKAYPLLFARPEGAMTTTRLPHVEDFSGVIVYSTKPIPVPIISPLKSNYVDEVKTIVENIDDSLKVAEFNGIAEFAMKIGELIKNKPYKMEFEGHHHHHH | soluble
14 | MGSEHAFQGPTSFHVIQTSSFTNSTWAQTQGSGWLDDLQIHGWDSDSGTAIFLKPWSKGNFSDKEVAELEEIFRVYIFGFAREVQDFAGDFQMKYPFEIQGIAGCELHSGGAIVSFLRGALGGLDFLSVKNASCVPSPEGGSRAQKFCALIIQYQGIMETVRILLYETCPRYLLGVLNAGKADLQRQVKPEAWLSSGPSPGPGRLQLVCHVSGFYPKPVWVMWMRGEQEQQGTQLGDILPNANWTWYLRATLDVADGEAAGLSCRVKHSSLEGQDIILYWGPGSGGGLNDIFEAQKIEWH | soluble
15 | MAHHHHHHMYGPSFSQTVLVAATPVVMKSPPTFFKGGNFRRISRRSTLKTTPERVPRNMYQFIVGSPSGELGHHSMDVMVSVQETVIDSGITQMCCSMLKNRRRRSLWRVTYVFGNSGDTLYNCRALSIDGLARRSMRPSPVPPDKLLSSAALIPFSVPRDFFIVFN | not soluble
16 | MERETPKTPTPTPYTNIYAALNNKKTNDEVASKVTEELNKLKIAEEKDNKIVSREKPEMMSLNTLVEMCSAGEKPTKGKSEKDIRKKKAPVLVDDNQSYVMIGPPSEPVEPPATLSTETSKTNAIEESTVKRSEALSAYIGVATLNDAENHLTRRGEFALYHLFNPNGRLDTITEKLPLMIVYRTTTKKNRHYSIRTTCDQQFFVDCGYPNVRKHYSLNHLVKFYKVRILLPDTIQKQQLTDILQILKQFQTSATCEINPYDTSADSFSWWLE | soluble
